# Biological target: hANGPTL3(17-460)-His (human) (UniProt Q9Y5C1)
# Assay: Biacore cross-competition, 25C; first antibody at 25 µg/ml on captured antigen
# hANGPTL3(17-460)-His (human), sequence (Q9Y5C1 other isoform, or with tags, fused parts or gaps): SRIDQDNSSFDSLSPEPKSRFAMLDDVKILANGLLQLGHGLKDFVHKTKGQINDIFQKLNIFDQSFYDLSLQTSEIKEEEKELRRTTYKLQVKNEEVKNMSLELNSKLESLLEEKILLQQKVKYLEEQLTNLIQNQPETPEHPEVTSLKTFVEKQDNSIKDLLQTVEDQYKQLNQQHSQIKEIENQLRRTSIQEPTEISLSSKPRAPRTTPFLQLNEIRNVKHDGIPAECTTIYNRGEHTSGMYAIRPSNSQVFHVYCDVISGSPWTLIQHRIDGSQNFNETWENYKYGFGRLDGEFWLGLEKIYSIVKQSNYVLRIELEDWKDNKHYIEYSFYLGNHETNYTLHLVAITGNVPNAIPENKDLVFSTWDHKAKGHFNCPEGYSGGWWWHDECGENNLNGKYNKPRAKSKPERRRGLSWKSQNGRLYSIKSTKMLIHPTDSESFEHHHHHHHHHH
substance,measurement,value
Negative Control (Table 8) (antibody),mAb1 binding response (RU),81 RU
